{
  "source": "paper PMC4517114",
  "origin": "cited, not measured here",
  "key": {"[1]": {"target": "MAGI-1 PDZ (Homo sapiens) (UniProt Q96QZ7)", "sequence (Q96QZ7 472-554)": "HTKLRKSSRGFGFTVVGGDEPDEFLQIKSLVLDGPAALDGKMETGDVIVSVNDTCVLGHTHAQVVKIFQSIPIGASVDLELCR"}, "[2]": {"target": "MAGI-1 PDZ (Homo sapiens) (UniProt Q96QZ7)", "remark": "listed apart in the source"}},
  "note": "Read-outs that look alike come from different tables or passages of the source.",
  "data": [
    {"substance": "HPV16 E6 (from UniProt P03126)", "values": [
      {"measurement": "Kd", "setting": "[1]", "value": 3, "unit": "µM"}
    ]},
    {"substance": "HPV18 E6 (from UniProt P06463)", "values": [
      {"measurement": "Kd", "setting": "[2]", "value": 1.5, "unit": "µM"}
    ]}
  ]
}
